Patent US20250277199, “NOVEL CRISPR-CAS NUCLEASES FROM METAGENOMES” (Brain Biotech AG, published 2025)

Molecular target: T1, BMC10 (uncultured bacterium (metagenome))
T1 chain: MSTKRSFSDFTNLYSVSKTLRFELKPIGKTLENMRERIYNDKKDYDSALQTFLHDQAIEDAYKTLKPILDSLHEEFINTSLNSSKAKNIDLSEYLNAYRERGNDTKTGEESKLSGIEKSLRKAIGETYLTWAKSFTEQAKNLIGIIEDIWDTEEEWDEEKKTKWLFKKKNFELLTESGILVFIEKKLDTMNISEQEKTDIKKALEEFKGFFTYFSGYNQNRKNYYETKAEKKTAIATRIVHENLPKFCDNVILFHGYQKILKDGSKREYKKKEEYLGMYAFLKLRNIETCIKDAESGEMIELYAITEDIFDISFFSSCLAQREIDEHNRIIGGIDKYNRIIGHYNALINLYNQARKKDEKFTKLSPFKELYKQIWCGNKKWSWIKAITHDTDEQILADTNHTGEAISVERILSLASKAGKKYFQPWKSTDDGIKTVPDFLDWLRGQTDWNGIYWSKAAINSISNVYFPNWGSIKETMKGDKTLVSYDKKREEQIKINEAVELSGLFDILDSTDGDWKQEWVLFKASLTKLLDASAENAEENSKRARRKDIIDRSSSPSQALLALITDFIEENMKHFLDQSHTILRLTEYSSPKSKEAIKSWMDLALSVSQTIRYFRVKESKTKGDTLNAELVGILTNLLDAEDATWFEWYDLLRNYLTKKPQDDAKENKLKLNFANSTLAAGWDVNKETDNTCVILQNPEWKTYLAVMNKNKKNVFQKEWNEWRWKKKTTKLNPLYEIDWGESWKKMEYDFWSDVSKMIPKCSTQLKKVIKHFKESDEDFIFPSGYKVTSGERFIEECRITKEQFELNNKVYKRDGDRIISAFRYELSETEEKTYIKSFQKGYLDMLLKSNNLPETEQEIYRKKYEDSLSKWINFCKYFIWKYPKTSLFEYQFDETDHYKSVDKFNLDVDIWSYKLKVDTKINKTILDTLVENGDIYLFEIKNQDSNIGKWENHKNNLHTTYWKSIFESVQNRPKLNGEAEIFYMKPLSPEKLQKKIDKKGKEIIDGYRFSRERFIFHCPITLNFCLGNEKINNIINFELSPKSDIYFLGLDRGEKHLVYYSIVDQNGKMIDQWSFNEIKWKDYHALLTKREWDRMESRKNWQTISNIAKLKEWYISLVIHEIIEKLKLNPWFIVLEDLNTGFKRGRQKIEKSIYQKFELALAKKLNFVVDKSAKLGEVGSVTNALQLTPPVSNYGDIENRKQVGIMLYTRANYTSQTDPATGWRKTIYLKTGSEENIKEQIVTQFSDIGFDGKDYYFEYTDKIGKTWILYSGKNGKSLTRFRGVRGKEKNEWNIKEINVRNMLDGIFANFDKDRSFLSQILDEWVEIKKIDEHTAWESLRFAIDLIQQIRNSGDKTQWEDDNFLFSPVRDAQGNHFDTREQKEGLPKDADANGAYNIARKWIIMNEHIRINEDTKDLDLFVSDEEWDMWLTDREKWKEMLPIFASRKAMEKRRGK
Experiment: cell_activity; PAM not stated; E. coli depletion, 30 C
Procedure, shortened: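 E. coli carrying arabinose-induced (0.2%) BMC nuclease, grown at 30° C., made electrocompetent and electroporated with 50-100 ng plasmid carrying gRNA against malQ. Transformants plated on selective M9-glucose agar with kanamycin/ampicillin (± nourseothricin), and growth scored after 48 h at 30° C.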

B1: malQ gRNA (BMC stem-loop + 24 nt spacer) ; malQ protospacer (ssRNA ; dsDNA)
RNA: GAUUUCUACUAUUGUAGAUGUGGCGGUACGUUGAUGCAUCGCG
DNA 1: GTGGCGGTACGTTGATGCATCGCG
DNA 2: CGCGATGCATCAACGTACCGCCAC
  activity: > 99.9 % colony reduction
